Results published in patent publication US20240317858A1.
Changes are numbered by the printed parent chain.

B1: Antibody No. A002 (ADI-50024) IgG1 (antibody, V domains shown)
VH: QVQLVQSGAEVKKPGASVKVSCKASGFNIKDYYMHWVRQAPGQRLEWIGWIDLENANTVYDAKFQGRVTITRDTSASTAYMELSSLRSEDTAVYYCARDAYGRYFYDVWGQGTLVTVSS
VL: DIVMSQSPDSLAVSLGERATINCKSSQSLLNARTGKNYLAWYQQKPGQPPKLLIYWASTRSSGVPDRFSGSGSGTDFTLTISSLQAEDVAVYYCVQSYFRRTFGGGTKVEIK
B2: Antibody No. V009 (ADI-70326) IgG1 (antibody, V domains shown)
VH: B1 VH with N28D, D52E, N57D
VL: B1 VL
B3: Antibody No. V010 (ADI-70327) IgG1 (antibody, V domains shown)
VH: B1 VH with N28D, D52E, A56D, N57D
VL: B1 VL
B4: Antibody No. V013 (ADI-70330) IgG1 (antibody, V domains shown)
VH: B1 VH with K30D, Y60D
VL: B1 VL

Target: Mouse CD3εδ Fc heterodimer (mouse) (UniProt P22646)
Test: BLI (Octet), IgG avidity, pH 7.4

Row | Binder | Kd [nM]
1 | B1 | 91
2 | B2 | 360
3 | B3 | 510
4 | B4 | 530
